According to US8242083B2, “Kinase substrates” (PerkinElmer Health Sciences, Inc., priority 2008, dated 2012):

Assays:
Assay type in all cases: biochemical
TYRO3 = biological target: T1, TYRO3 (Homo sapiens, UniProt Q06418); assay: TR-FRET kinase assay, TYRO3; details: Kinase Concentration 0.25 nM; 50 nM ULight-labeled substrate, 200 micromolar ATP, 2 hours
T1 sequence (Q06418 41-890): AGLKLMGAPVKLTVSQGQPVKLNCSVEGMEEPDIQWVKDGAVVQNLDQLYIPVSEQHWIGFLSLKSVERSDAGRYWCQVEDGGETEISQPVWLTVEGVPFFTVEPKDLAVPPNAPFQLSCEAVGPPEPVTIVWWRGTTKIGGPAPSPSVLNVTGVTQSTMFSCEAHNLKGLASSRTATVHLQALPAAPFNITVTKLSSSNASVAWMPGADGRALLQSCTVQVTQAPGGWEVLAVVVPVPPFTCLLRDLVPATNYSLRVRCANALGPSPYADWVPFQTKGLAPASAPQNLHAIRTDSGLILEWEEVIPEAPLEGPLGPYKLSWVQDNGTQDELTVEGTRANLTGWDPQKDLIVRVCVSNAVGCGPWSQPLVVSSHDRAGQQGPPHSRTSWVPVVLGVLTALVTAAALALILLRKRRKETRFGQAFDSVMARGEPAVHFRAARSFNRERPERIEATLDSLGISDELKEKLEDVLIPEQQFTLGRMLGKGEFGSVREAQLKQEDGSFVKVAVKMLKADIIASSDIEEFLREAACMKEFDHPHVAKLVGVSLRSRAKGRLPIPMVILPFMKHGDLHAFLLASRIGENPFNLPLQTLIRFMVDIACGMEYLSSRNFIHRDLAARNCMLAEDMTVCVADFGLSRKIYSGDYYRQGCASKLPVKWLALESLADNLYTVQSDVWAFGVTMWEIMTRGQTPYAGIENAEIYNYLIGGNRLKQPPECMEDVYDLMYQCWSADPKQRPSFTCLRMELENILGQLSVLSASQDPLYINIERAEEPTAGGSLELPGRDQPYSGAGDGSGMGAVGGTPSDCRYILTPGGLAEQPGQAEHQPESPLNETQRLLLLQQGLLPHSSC
Experimental: (§1) TR-FRET kinase assays are performed under standardized conditions: various individual kinases are incubated with 50 nM of kinase substrate BRB1 labeled with the TR-FRET acceptor dye ULight (PerkinElmer) and 200 micromolar ATP in 10 μL of kinase assay buffer (50 mM HEPES pH7.5, 10 mM MgCl2, 3 mM MnCl2, 1 mM EGTA, 2 mM DTT and 0.01% Tween-20) for 2 hours at room temperature. Reactions are stopped with EDTA, and anti-phospho-tyrosine antibodies (clone PT66) labeled with the TR-FRET europium chelate donor dye are added to a final concentration of 2 nM in a final volume of 20 μL. The TR-FRET signal emitted at 665 nm is read one hour after the addition of antibodies using a TR-FRET plate reader such as the Envision® Multilabel Plate reader (PerkinElmer). The emitted signal at 665 nm is proportional to the extent of peptide phosphorylation, Control reactions indicative of background are performed excluding ATP from the reaction.
(§2) Assay conditions are identical to those used described for FIG. 1.

FRK = FRK (Homo sapiens, UniProt P42685); assay: TR-FRET kinase assay, FRK; details: Kinase Concentration 0.5 nM; 50 nM ULight-labeled substrate, 200 micromolar ATP, 2 hours
Experimental: as §1, §2

FLT3 = FLT3 (Homo sapiens, UniProt P36888); assay: TR-FRET kinase assay, FLT3; details: Kinase Concentration 0.1 nM; 50 nM ULight-labeled substrate, 200 micromolar ATP, 2 hours
Experimental: as §1, §2

EphA1 = biological target: T2, EphA1 (Homo sapiens, UniProt P21709); assay: TR-FRET kinase assay, EphA1; details: Kinase Concentration 0.5 nM; 50 nM ULight-labeled substrate, 200 micromolar ATP, 2 hours
T2 sequence (P21709 26-976): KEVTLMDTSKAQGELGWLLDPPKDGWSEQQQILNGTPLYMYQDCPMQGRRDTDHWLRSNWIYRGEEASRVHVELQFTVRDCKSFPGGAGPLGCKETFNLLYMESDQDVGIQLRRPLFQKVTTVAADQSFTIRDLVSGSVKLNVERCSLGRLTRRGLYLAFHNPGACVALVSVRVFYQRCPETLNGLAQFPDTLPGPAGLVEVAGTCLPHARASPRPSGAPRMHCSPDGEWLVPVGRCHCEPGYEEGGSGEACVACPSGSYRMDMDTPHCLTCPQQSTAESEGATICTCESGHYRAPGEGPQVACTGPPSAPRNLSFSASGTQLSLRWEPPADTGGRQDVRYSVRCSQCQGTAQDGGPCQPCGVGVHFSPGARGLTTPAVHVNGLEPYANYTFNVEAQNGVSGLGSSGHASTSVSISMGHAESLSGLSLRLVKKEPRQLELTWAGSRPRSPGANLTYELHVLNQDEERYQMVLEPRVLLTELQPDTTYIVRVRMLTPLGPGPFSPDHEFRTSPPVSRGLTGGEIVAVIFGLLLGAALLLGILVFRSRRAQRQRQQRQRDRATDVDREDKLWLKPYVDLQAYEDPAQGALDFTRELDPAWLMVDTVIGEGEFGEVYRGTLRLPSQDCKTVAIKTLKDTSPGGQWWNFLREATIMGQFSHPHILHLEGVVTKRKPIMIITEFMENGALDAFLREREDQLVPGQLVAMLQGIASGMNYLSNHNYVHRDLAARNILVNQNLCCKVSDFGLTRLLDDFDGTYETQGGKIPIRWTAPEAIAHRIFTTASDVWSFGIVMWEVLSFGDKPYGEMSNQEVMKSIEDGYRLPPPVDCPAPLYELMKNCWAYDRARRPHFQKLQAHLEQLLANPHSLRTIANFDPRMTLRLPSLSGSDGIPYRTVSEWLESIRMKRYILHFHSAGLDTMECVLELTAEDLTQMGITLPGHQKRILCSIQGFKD
Experimental: as §1, §2

ABL [T315I] (ABL1) = ABL [T315I] (ABL1) (Homo sapiens, UniProt P00519, T315I); assay: TR-FRET kinase assay, ABL [T315I]; details: Kinase Concentration 0.5 nM; 50 nM ULight-labeled substrate, 200 micromolar ATP, 2 hours
Experimental: as §1, §2

INSR = INSR (Homo sapiens, UniProt P06213); assay: TR-FRET kinase assay, INSR; details: Kinase Concentration 20 nM; 50 nM ULight-labeled substrate, 200 micromolar ATP, 2 hours
Experimental: as §1, §2

KDR = KDR (Homo sapiens, UniProt P35968); assay: TR-FRET kinase assay, KDR; details: Kinase Concentration 0.25 nM; 50 nM ULight-labeled substrate, 200 micromolar ATP, 2 hours
Experimental: as §1, §2

PYK2 = PYK2 (Homo sapiens, UniProt Q14289); assay: TR-FRET kinase assay, PYK2; details: Kinase Concentration 0.25 nM; 50 nM ULight-labeled substrate, 200 micromolar ATP, 2 hours
Experimental: as §1, §2

Chain of FRK (P42685 whole entry, species assumed): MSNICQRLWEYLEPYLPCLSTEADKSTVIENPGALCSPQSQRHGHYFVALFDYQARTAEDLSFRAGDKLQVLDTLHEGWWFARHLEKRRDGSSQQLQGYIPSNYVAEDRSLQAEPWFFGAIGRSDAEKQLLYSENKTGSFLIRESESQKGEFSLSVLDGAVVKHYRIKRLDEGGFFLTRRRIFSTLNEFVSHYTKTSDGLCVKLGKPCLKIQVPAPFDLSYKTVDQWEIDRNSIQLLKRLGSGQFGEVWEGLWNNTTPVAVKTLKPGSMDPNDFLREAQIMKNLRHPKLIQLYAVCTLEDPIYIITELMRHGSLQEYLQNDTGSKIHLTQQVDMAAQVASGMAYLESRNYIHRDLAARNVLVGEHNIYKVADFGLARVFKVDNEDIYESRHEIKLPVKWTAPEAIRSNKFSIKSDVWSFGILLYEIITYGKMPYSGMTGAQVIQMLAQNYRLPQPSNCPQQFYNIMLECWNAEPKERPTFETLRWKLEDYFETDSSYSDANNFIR
Chain of PYK2 (Q14289 whole entry, species assumed): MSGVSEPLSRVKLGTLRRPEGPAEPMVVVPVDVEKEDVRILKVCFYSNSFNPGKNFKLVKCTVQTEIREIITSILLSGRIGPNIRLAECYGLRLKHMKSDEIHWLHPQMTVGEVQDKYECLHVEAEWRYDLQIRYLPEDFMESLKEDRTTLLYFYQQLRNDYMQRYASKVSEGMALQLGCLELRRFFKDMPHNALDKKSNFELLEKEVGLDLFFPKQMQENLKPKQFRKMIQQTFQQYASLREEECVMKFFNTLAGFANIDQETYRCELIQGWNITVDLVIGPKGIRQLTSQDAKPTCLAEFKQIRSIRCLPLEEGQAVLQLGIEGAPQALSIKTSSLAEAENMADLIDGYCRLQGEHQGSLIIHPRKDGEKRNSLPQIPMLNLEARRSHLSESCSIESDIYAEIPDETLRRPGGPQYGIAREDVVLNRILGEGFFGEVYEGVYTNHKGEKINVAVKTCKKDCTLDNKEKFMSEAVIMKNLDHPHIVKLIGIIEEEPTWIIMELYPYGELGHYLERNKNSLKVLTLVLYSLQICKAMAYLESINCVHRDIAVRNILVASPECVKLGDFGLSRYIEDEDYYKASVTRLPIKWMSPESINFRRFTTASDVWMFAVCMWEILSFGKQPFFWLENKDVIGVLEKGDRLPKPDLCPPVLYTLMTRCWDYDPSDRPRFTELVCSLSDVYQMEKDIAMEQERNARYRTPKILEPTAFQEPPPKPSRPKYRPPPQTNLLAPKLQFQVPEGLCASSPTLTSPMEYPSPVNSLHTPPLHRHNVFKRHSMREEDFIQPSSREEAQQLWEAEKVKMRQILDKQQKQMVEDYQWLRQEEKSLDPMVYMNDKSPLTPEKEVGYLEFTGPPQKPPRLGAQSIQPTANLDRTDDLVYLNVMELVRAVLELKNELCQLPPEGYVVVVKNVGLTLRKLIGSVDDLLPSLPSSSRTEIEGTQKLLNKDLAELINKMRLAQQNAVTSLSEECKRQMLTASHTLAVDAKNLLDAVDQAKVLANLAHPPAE
Chain of KDR (P35968 20-1356, species assumed): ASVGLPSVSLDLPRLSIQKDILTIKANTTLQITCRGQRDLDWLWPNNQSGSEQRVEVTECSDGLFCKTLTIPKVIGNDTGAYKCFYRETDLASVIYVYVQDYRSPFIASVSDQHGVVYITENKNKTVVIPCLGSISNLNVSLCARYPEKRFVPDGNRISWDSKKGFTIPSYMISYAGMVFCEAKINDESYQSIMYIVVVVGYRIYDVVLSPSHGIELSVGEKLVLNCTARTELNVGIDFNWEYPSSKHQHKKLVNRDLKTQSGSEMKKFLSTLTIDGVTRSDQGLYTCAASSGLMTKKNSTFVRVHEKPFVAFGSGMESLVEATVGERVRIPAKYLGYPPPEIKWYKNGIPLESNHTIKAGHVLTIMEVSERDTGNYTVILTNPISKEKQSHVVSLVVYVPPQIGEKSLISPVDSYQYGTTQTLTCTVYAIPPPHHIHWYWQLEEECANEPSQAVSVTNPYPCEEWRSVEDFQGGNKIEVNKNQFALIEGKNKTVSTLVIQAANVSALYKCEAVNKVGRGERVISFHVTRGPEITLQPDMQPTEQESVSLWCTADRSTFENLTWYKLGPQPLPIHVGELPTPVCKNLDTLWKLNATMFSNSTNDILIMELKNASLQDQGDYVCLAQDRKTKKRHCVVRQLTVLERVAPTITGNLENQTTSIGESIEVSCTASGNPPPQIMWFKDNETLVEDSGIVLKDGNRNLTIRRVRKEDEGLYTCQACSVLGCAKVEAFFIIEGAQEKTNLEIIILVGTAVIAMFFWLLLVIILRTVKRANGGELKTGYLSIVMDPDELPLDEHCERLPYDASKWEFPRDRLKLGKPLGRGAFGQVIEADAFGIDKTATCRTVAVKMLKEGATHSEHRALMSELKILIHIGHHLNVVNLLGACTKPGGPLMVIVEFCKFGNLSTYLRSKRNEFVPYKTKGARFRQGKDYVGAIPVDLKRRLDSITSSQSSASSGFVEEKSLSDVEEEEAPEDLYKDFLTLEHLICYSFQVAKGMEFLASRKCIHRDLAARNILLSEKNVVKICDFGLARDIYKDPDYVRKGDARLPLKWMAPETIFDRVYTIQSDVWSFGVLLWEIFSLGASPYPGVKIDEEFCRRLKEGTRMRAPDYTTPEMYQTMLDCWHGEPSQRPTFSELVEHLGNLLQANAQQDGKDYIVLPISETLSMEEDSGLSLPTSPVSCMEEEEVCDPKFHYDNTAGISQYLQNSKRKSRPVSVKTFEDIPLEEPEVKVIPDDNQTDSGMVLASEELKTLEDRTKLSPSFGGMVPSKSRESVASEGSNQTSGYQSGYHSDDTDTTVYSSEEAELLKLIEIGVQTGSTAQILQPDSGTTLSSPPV

C AYE AYE AYE K EYA EYA EYA K AYA EYE R (CAYEAYEAYEKEYAEYAEYAKAYAEYER; tyrosine kinase substrate peptide) [BRB1]
Signal to Noise ratio with BRB1 Peptide (TYRO3): 6.1
Signal to Noise ratio with BRB1 Peptide (FRK): 9.7
Signal to Noise ratio with BRB1 Peptide (FLT3): 25.9
Signal to Noise ratio with BRB1 Peptide (EphA1): 10.8
Signal to Noise ratio with BRB1 Peptide (ABL [T315I] (ABL1)): 4.8
Signal to Noise ratio with BRB1 Peptide (INSR): 4.0
Signal to Noise ratio with BRB1 Peptide (KDR): 16.9
Signal to Noise ratio with BRB1 Peptide (PYK2): 2.9
